Results reported in paper PMC6389498, “Control of Bacterial Virulence through the Peptide Signature of the Habitat” (Cell Reports, 2019).

Columns and labels:
[1] = molecular target: PrfA (full-length PrfA^WT with two non-native N-terminal residues GA after TEV cleavage, used for crystallization) (Listeria monocytogenes) (UniProt P22262); test: crystal structure
[2] = molecular target: PrfA (recombinant PrfA^WT from E. coli BL21(pET28aprfA^WT), used in the biophysical assays) (Listeria monocytogenes) (UniProt P22262)
[3] = molecular target: PrfA (recombinant PrfA^WT from E. coli BL21(pET28aprfA^WT), used in the biophysical assays) (Listeria monocytogenes) (UniProt P22262); test: ITC; GE MicroCal iTC200; 100 uM PrfA in the cell, 2 uL of 250 uM peptide injected every 60 s; 50 mM Tris pH 7.5, 500 mM NaCl; one-site model

Chain of PrfA (recombinant PrfA^WT from E. coli BL21(pET28aprfA^WT), used in the biophysical assays) (Listeria monocytogenes) (P22262 whole entry): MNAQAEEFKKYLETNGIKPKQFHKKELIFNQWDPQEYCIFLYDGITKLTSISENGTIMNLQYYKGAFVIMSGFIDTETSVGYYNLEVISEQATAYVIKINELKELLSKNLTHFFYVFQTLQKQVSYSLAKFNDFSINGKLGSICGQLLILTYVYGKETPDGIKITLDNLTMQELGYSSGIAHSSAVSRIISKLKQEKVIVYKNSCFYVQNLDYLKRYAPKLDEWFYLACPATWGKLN
Chain of PrfA (full-length PrfA^WT with two non-native N-terminal residues GA after TEV cleavage, used for crystallization) (P22262 1-237, tags left off): as the sequence (P22262 whole entry) above

Row | other [2] | Kd [3] | Substance | stoichiometry N [1]
1 | – | – | PrfA (full-length PrfA^WT with two non-native N-terminal residues GA after TEV cleavage, used for crystallization) (from UniProt P22262 1-237) (natural protein) | 2
2 | 93% | 25 µM | LL peptide (Leu dipeptide, L-leucylleucine) | –
3 | 87% | 25 µM | LLL peptide (Leu tripeptide) | –
